# In patent US7829109B2, “Catheter injectable depot compositions and uses thereof” (Durect Corporation, priority 2001, dated 2010):
# Columns and labels:
# [1] = Preliminary stability of PDGF preformulations in the gel vehicle (SEC, rpHPLC); type: physicochemical; details: mixed into gel vehicle PLGA RG502/BB/BA 40/45/15, stored at 5° C. for 1 day
# Experimental: All lyophilized protein formulations as listed in Tables 8 and 9, were mixed into a gel vehicle with the composition of PLGA RG502/Benzyl Benzoate (BB)/benzyl alcohol (BA) of 40/45/15 with the loading of the protein formulation about 10 wt %. After being stored at 5° C. for 1 day, the mixtures were extracted with an organic solvent mixture of methylene chloride and acetone (ratio of 50/50) as described in the example 15 above. The purity of the PDGF-BB was analyzed by both reverse phase HPLC (rpHPLC) and size exclusion chromatography (SEC). In general, no distinguishable degradation of the PDGF-BB was found in the PDGF-BB formulation incorporated with the excipients as described in the example 18 and mixed with the gel vehicle of the present invention.
# [2] = Stability of PDGF in the depot formulations (rpHPLC, SEC); type: physicochemical; details: day 0
# Experimental: Depot gel PDGF formulations were stored for different periods of time at 5, 25 and 40° C., respectively. At predetermined time points, the depot gel PDGF-BB formulation (0.3 ml) was treated with a cooled organic solvent (a 50/50 mixture of methylene chloride/acetone, at 5° C., 3×3.0 ml). The resulting residual PDGF-BB was dissolved in a PBS buffer (2 ml, pH 7.4) and the purity of the PDGF was analyzed by both reverse phase HPLC (rpHPLC) and size exclusion chromatography (SEC) HPLC. FIGS. 18-20 illustrate the stability of PDGF (% monomer by SEC) in the various depot formulations, including those of the present invention, as a function of time at 5° C. (FIG. 18), 25° C. (FIG. 19) and 40° C. (FIG. 20), respectively. Table 12 summarizes the chemical stability of PDGF tested by rpHPLC in the various depot formulations, including those of the present invention, as a function of time at 5° C., 25° C. and 40° C., respectively. […] Sucrose has a significant stabilizing effect on the various depot formulations of the present invention.
substance,measurement,setting,value
"Bulk PDGF: PDGF-BB bulk solution, i.e., aqueous solution of PDGF in acetate buffer",% PDGF dimer by SEC,[1],0.73%
same,% PDGF monomer by SEC,[1],99.27%
same,% other peaks by rp-HPLC,[1],0.0%
same,% peak at RRT = 0.93 by rp-HPLC,[1],11.1%
same,% peak at RRT = 1.00 by rp-HPLC,[1],87.7%
same,% peak at RRT = 1.10 by rp-HPLC,[1],1.2%
same,RP-HPLC Other Peak(s),[2],0 % Peak Area
same,RP-HPLC Peak at (RRT = 0.93),[2],11.1 % Peak Area
same,RP-HPLC Peak at (RRT = 1.00),[2],87.7 % Peak Area
same,RP-HPLC Peak at (RRT = 1.09),[2],1.2 % Peak Area
